Here are results for 1 substance from US20120302506A1.

The target in this experiment is Human uPA (Chemicon) (human) (UniProt P00749). As to the kind of experiment: cell-based or functional assay.

Glutathione S-transferase (GST)-tagged maspin (GST-maspin), bacterial recombinant, sequence (P08515 whole entry): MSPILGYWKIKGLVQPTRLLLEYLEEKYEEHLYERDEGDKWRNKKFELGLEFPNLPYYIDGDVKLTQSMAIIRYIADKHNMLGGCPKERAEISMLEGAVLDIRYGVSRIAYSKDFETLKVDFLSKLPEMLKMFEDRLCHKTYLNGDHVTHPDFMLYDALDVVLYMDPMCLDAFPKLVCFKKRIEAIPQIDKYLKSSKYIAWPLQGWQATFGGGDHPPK

“Glutathione S-transferase (GST)-tagged maspin (GST-maspin), bacterial recombinant (from UniProt P08515 1-218)” came in with a maspin-mediated adhesion of uPA-stripped MCF0A cells resupplied with exogenous uPA (800 nM) (% of GST control) of 154.
